In series [1] the target is Chymotrypsin (CTRC) (bovine (pancreas), UniProt P00766 1-245). Kind of series: bead-based affinity chromatography, fluorescence; PBS pH 7.4, room temperature, 1 h; EMSA 500 nM oligo + 200 µM protein, 5% agarose; bead assay with bead-immobilized protein, Alexa488 oligo 1-60 nM (lysozyme) o. Background: A gel shift assay detects complexes by their altered migration in electrophoresis.

Series [2] concerns the target Cytochrome c (equine (heart), UniProt P00004 2-105). The series is described as above.
In series [3] the target is Lysozyme C (Gallus gallus (Chicken), UniProt P00698 19-147). The series is described as above.
Chain of Lysozyme C (P00698 19-147): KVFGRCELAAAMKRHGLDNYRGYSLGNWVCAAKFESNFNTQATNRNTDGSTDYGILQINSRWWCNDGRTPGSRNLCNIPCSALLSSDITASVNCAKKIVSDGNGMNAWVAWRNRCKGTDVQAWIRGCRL
Series [4] deals with BSA (Bos taurus (Bovine), UniProt P02769 25-607). Kind of series: EMSA; PBS pH 7.4, room temperature.
Chain of BSA (P02769 25-607): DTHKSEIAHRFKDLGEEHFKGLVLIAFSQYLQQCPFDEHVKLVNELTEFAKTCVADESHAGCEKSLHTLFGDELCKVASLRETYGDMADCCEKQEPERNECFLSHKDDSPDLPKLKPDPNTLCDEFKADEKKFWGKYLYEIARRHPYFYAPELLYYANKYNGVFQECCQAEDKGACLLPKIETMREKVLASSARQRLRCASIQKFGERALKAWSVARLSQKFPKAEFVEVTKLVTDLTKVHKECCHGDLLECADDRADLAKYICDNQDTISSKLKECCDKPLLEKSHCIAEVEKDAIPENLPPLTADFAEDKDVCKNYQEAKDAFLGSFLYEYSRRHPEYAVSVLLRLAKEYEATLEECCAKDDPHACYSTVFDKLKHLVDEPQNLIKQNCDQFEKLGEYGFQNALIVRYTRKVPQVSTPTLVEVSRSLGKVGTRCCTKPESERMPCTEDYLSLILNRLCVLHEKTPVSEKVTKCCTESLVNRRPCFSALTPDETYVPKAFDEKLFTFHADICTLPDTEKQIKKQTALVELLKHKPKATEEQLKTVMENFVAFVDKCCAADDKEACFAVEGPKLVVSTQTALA
The target in series [5] is Chymotrypsin (Bos taurus (Bovine), UniProt P00766;P00766;P00766 1-13;16-146;149-245). Kind of series: pulldown; PBS pH 7.4, room temperature.

Chain of Cytochrome c (P00004 2-105): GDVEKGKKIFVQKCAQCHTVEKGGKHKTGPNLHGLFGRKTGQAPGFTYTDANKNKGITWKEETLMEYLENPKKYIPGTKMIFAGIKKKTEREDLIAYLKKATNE

As a reminder, the Kd is the constant that tells how readily two partners part at equilibrium. In the case of ATAAATTTAAGACATGAAAAAATAAATTTTTATTTTTTTACGTTTTTATT (ssDNA) [oligonucleotide 1, Alexa488], the Kd worked out at 1.4 µM in series [1], 1.4 µM in series [2] and 0.014 µM in series [3].
Take ATAAATTTAAGACATGAAAAAATAAATTTTTATTTTTTTACGTTTTTATT (ssDNA): in series [4], the binding result is “no binding”. Moreover, the Kd in series [5] amounted to 1.4 µM.

B1: oligonucleotide 2, Alexa488 (ssDNA)
DNA: CGGTCCTCAGATGTGATTCCATCCTTCTTTTGAGCAAACTACCTGTATAACGTAAGTCCGTGTGTGCGAA
On to B1, for which the Kd came to 3.3 µM in series [1], 1.1 µM in series [2] and 0.008 µM in series [3].

B2:  (ssDNA)
DNA: B1 DNA
B2: the binding result in series [4] is “no binding”. The molecule further displayed a dissociation constant Kd in series [5] of 3.3 µM.

The record behind these values is paper PMC10054347.
